Experimental data: patent US20150291952

Target: CHK2 (UniProt O96017)
Test: EMSA
Settings: SEQ:22 is the DNA template strand, RNA is its reverse complement

Sequence of CHK2 (O96017 whole entry): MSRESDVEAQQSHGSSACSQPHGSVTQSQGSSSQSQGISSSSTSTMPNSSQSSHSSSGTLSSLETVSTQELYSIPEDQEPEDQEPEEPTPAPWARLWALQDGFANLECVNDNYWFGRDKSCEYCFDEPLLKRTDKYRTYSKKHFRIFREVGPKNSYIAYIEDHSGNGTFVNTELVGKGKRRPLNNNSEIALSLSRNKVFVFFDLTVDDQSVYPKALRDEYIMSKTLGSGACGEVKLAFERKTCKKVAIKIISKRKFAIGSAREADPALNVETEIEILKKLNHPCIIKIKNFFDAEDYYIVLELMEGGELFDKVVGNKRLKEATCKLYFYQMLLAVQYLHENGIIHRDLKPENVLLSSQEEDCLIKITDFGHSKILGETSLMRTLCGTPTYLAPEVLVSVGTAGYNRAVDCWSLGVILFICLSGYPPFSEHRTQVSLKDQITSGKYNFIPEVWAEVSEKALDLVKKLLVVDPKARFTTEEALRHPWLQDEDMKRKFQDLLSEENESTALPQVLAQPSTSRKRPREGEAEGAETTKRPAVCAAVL

## AAGCUUCGUCAAGUCUGCAGUGAANNNNNNNNNNNNNNNNNNNNNNNNNNNNNNNNNNNNNNNNNNNNNNNNNNNNNNNNNNNNNNNNNNNNNNGAAUUCGUAGAUGUGGAUCCAUUCCC [CHK2 RAPID Cycle 6 pool]
Bulk pool, 87% bound at highest protein
  Kd: 0.191 µM

## AAGCUUCGUCAAGUCUGCAGUGAANNNNNNNNNNNNNNNNNNNNNNNNNNNNNNNNNNNNNNNNNNNNNNNNNNNNNNNNNNNNNNNNNNNNNNGAAUUCGUAGAUGUGGAUCCAUUCCC [CHK2 SELEX Cycle 6 pool]
Bulk pool, 86% bound, FP Kd 1.6-fold higher (FIG. 8)
  Kd: 0.281 µM

## AAGCUUCGUCAAGUCUGCAGUGAANNNNNNNNNNNNNNNNNNNNNNNNNNNNNNNNNNNNNNNNNNNNNNNNNNNNNNNNNNNNNNNNNNNNNNGAAUUCGUAGAUGUGGAUCCAUUCCC [CHK2 RAPID Cycle 2 pool]
Bulk pool, 65% bound at highest protein
  Kd: 0.39 µM

## AAGCUUCGUCAAGUCUGCAGUGAANNNNNNNNNNNNNNNNNNNNNNNNNNNNNNNNNNNNNNNNNNNNNNNNNNNNNNNNNNNNNNNNNNNNNNGAAUUCGUAGAUGUGGAUCCAUUCCC [CHK2 RAPID Cycle 4 pool]
Bulk pool, 72% bound at highest protein
  Kd: 0.209 µM

## AAGCUUCGUCAAGUCUGCAGUGAANNNNNNNNNNNNNNNNNNNNNNNNNNNNNNNNNNNNNNNNNNNNNNNNNNNNNNNNNNNNNNNNNNNNNNGAAUUCGUAGAUGUGGAUCCAUUCCC [N70 starting RNA library]
Starting library, 59% bound at highest protein
  Kd: > 1 µM

## AAGCUUCGUCAAGUCUGCAGUGAANNNNNNNNNNNNNNNNNNNNNNNNNNNNNNNNNNNNNNNNNNNNNNNNNNNNNNNNNNNNNNNNNNNNNNGAAUUCGUAGAUGUGGAUCCAUUCCC [CHK2 SELEX Cycle 3 pool]
Bulk pool, 69% bound, FP Kd 1.6-fold higher (FIG. 8)
  Kd: 0.315 µM
